Reference: paper PMC7347537

Biological target: full-length IRG1 from Bacillus subtilis (immune-responsive gene 1, cis-aconitate decarboxylase) (Bacillus subtilis)
Assay: SEC-MALS; Superdex 200 10/300, 20 mM Tris-HCl (pH 8.0), 150 mM NaCl, 0.4 mL/min, room temperature; DAWN-treos MALS detector

stoichiometry N: 2
Substance: full-length IRG1 from Bacillus subtilis (immune-responsive gene 1, cis-aconitate decarboxylase) (enzyme)
